The supplement of paper PMC9170038

Tested on: MS2 coat protein
Test: apparent KD of MS2 coat protein; designed switch direction (-1 OFF switch, 1 ON switch): -1; higher = weaker reporter binding
Summary of the method: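 Stalled E. coli RNA polymerase transcribed designed RNA switches on Illumina chips, which were then titrated with SNAP-549-labelled MS2 coat protein, doubling from 0.7 or 1.5 nM to 3 µM. Steps lasted from 0.8–1.5 h at the lowest concentration to 10–20 min at the highest. The apparent KD is each design's median over clusters of curve-fitted normalised fluorescence.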

[1] = input ligand: microRNA oligo, concentration not stated
[2] = Eterna round: R95, input ligand: FMN 200 uM
[3] = Eterna round: R95, input ligand: microRNA oligo, concentration not stated
[4] = Eterna round: R95, input ligand: none

Row | Sequence | apparent KD of MS2 coat protein (input ligand: FMN 200 uM) [nM] | apparent KD of MS2 coat protein (input ligand: none) [nM] | apparent KD of MS2 coat protein [1] [nM] | apparent KD of MS2 coat protein [2] [nM] | apparent KD of MS2 coat protein [3] [nM] | apparent KD of MS2 coat protein [4] [nM]
1 | GUCAUCGCAGGAUAUUAGAGUUUUUACAUGAGGAUCACCCAUGUUAAUUGGGUUAAUGUCUAAGAAGGGCGAUGAA [JR_EX5_Sub013] (Eterna round: R97, puzzle: Exclusion 5) | 126 | 67.4 |  |  |  | 
2 | GUCGUGCGGCUUUGCUGUACGAGUACAUGAGGAUCACCCAUGUAGGAUAUGGUUCGUUUUGCGUGCUAGAAGGGCGUGCGUUGU [Excl-NG3-LRO15] (Eterna round: R96, puzzle: Exclusion NG 3) |  |  | 17.9 |  |  | 
3 | GCACGGAGUGUAGGAUAUCUGUGCGAUUAGCUCAGAGAAGGACACAUGAGGAUCACCCAUGUGUUCCUCGGAAACGAACCGUGC [Eli exng1 - 051] (Eterna round: R96, puzzle: Exclusion NG 1) | 32.2 | 14 | 10.9 |  |  | 
4 | UAUUGCUGAGGAUAUAUAUAGAGCAUUUUCCUCGUGACAGAACAUGAGGAUCACCCAUGUAGAAGGCAGAAGUG [Eternabot (L2) Solution 87] (Eterna round: R97, puzzle: Exclusion 2) | 263 | 192 |  |  |  | 
5 | CGGUGUAACAGAGGAUAUGAGCGCAACUGACGAUCAGAAGGCUGACAUGAGGAUCACCCAUGUGAUUUCUCAAUAUUAUACAUC [Prohibition 89 - Jieux - Exclusion NG 1] (Eterna round: R96, puzzle: Exclusion NG 1) | 34.2 | 153 | 324 |  |  | 
6 | CAGUACUGAGGAUAUACAUGAGGAUCACCCAUGUGUUCCAGCUAGGAAACUAGCACUUGUAGAAGGCAGUACUG [Ex3: 830] (Eterna round: R96, puzzle: Exclusion 3) | 458 | 26.7 | 21.6 |  |  | 
7 | CUCCUCGUGGCGCCUAAACACAUGAGGAUCACCCAUGUACAGGCUUUUUGCCGUCUUAUAAUAAAACCGAGGAGGCG [Arce] (puzzle: Sensor v3, turn-off variant 1) |  |  |  | 13.7 | 22.1 | 15.9
8 | GCGCCAUCGUGAGAUGGCGUAAUUACAUGAGGAUCACCCAUGUAGGAUAUCGAUUGCUUUGCAGUCGAGAAGGACAUGAUAAUU [JL ENG3 3.80] (Eterna round: R96, puzzle: Exclusion NG 3) | 104 | 33.7 | 25 |  |  | 
9 | UUUUACGUAGGAUAUACAUUUUUUUUAUUAUUUUCAUUAUUACAUGAGGAUCACCCAUGUAGAAGGACGAUUUU [My Design] (puzzle: Exclusion 2) |  |  |  |  | 25 | 
10 | UAUUAAUGCAAGGAUAUGCUAUUAAUUUUUUUUGCAGAAGGUGCAACAUGAGGAUCACCCAUGUUUGAGGGUAU [JR_E6_Sub029] (puzzle: Exclusion 6) |  |  |  |  | 55.9 | 
11 | ACAAAGGACAUGAGGAUCACCCAUGUGGUGCACAAGUCCAGCAAGGAUAUCCAAGUCCCAUAAACGGAGAAGGUGCAUAAUAAG [Inesxeed] (Eterna round: R96, puzzle: Exclusion NG 3) | 283 | 113 | 86.6 |  |  | 
12 | UAUAUAUAGUAAGGAUAUGUAACUAUUUUAUAAACAGAAGGUACUGACAUGAGGAUCACCCAUGUUUUAGUGUGGGCAUGUAGA [JMF's solution 29] (Eterna round: R96, puzzle: Exclusion NG 1) |  |  | 72.6 |  |  | 
13 | UAUAUGUCAGGAUAUCGCAACUGCGCGCGCAAGAAUCAUAACGAGAAGGGACAUGAGGAUCACCCAUGUACACU [I dont know] (puzzle: Exclusion 4) |  |  |  |  | 18.1 | 
14 | AAACCCAGAGGAUAUGCUGACUCCGACAUGAGGAUCACCCAUGUAGCGACUCUUCAUGCAGCAGAAGGUUGAUUUU [Eternabot (L1) Solution 66] (Eterna round: R97, puzzle: Exclusion 5) | 235 | 271 |  |  |  | 
15 | UAUAUAUAGUAAGGAUAUGUAUAAAUUUUAUAAACAGAAGGUACUGACAUGAGGAUCACCCAUGUUUUAGUGUGGGCAUGUAGA [JMF's solution 52] (Eterna round: R96, puzzle: Exclusion NG 1) |  |  | 74.6 |  |  | 
16 | GUUAACGUAGGAUAUUAGUACAUGCACAUGAGGAUCACCCAUGUUUAGUGGGUCUAGGAAUAAGAAGGGCGAAGAA [EX5 #23] (Eterna round: R97, puzzle: Exclusion 5) | 170 | 309 |  |  |  | 
17 | CUGGUCCGAGGAUAUAUUAUGUGAUACAUGAGGAUCACCCAUGUUAUAUGAUGGAAAUAAAUAGAAGGCGGACUAG [Mat - Exclusion 5 - JL mod - D67] (puzzle: Exclusion 5) |  |  |  | 79 | 70.5 | 69

Row | Sequence | apparent KD of MS2 coat protein (input ligand: FMN 200 uM) [nM] | apparent KD of MS2 coat protein (input ligand: none) [nM] | apparent KD of MS2 coat protein [1] [nM] | apparent KD of MS2 coat protein [2] [nM] | apparent KD of MS2 coat protein [3] [nM] | apparent KD of MS2 coat protein [4] [nM]
18 | GUAGAUCGAGUUAGGAUAUGAUUAAAAUCCGGAUAUCAGAAGGAACUUGAGGAUCACCCAAGUAUAGAUGAUUU [JR_BMEx4_Sub055] (Eterna round: R97, puzzle: Brourd's mod of Exclusion 4) | 104 | 23.2 |  |  |  | 
19 | AUAGAUAUAGGAUAUGAGGUAUAGUACAUGAGGAUCACCCAUGUUGAUCGCAUGAACGAUUUAGAAGGAUACCUAA [Eternabot (L2) Solution 83] (Eterna round: R97, puzzle: Exclusion 5) | 643 | 1310 |  |  |  | 
20 | GCAUCCAAAGUGAGGAUAUACCUCUGGAUACAGAGGUAGAAGGCACAUGAGGAUCACCCAUGUUCCUAGGAUGC [Fiskers BMX 4 - 38] (puzzle: Brourd's mod of Exclusion 4) |  |  |  |  | 13.3 | 
21 | CUGAGCAGACGGAGAUCCAACAUGAGGAUCACCCAUGUCUCAAAAGCUUUUUGCUUGUCUUAUCCUCCUCUGUUCAC [Esqutian] (puzzle: Sensor v3, turn-off variant 1) |  |  |  | 14 | 390 | 12.3
22 | UUUUAGCAAGCGAGAAUUAACAUGAGGAUCACCCAUGUGCAUCCAGAAUUACUUUUAGAACAAGCUCGUCUUAUAUA [JR_STOV1_v2_Sub081] (Eterna round: R97, puzzle: Sensor, turn-off variant 1) | 353 | 401 |  |  |  | 
23 | AAUUUACAUGAGGAUCACCCAUGUGAGGAUAUAUAUAUAUAUUUGUUAUUGUAUGUUUGUAGAAGGCGCGUGAU [JR_Exc1_Sub033] (Eterna round: R97, puzzle: Exclusion 1) | 33 | 39.2 |  |  |  | 
24 | AAUUAUUUAUGAGGAUAUUGUGGUGAAACACCACAAGAAGGCAUGAUACACAUGAGGAUCACCCAUGUGAGCCUUAUGCAUAUA [Ex NG1 #57] (Eterna round: R96, puzzle: Exclusion NG 1) |  |  | 16.5 |  |  | 
25 | ACGAUGACCGAAAAGUGUCAACUGACAUGAGGAUCACCCAUGUAGGAUAUGGCUACGAAAAGUAGUCAGAAGGACAAGUCAUCA [Omei Exc(NG) 3 Av5] (Eterna round: R96, puzzle: Exclusion NG 3) | 12.4 | 14 | 8.52 |  |  | 
26 | UGACUACAUGAGGAUCACCCAUGUCAGGAUAUGCCGUUAAAUUAACAUCAACAUACGGGUAGAAGGGACAGCGU [1st #5] (Eterna round: R97, puzzle: Exclusion 1) | 27.2 | 29.4 |  |  |  | 
27 | CCUCAGUCACAGGAUAUGCUCAUCUAAUGAUGAGCAGAAGGGUGAACAUGAGGAUCACCCAUGUUUACCAGGGU [Omei Ex6 E5] (Eterna round: R97, puzzle: Exclusion 6) | 36 | 161 |  |  |  | 
28 | GCGCAAAGCUAGGAUAUCCAGGGAUCUUCCCGCGGAGAAGGAGCCACAUGAGGAUCACCCAUGUGGUGAUCCUG [eternacac ex6r4 sub7] (Eterna round: R97, puzzle: Exclusion 6) | 14.9 | 15.4 |  |  |  | 
29 | ACAUGUAUUGCAGGAUAUGGGACACAUGAGGAUCACCCAUGUGACUACAUGUCAUACCAAGCGUCUCAGAAGGGUAUGUACAUG [Ex NG2 #38] (Eterna round: R96, puzzle: Exclusion NG 2) | 21.3 | 18.5 | 15.8 |  |  | 
30 | GGCAUAAUGUAGGAUAUCGUAUUGGAAACAAUACGAGAAGGGCAAACAUGAGGAUCACCCAUGUUCCUUAAGCC [Mat - Exclusion 6 - Eli Mod - D71] (puzzle: Exclusion 6) |  |  |  |  | 15.1 | 
31 | CUCGUGCAGCUUUGCUGUACGAGUACAUGAGGAUCACCCAUGUAGGAUAUGGUACGCAAAGCGUGCCAGAAGGACGUGCGUUAG [Mat - Exclusion NG 3 - Mod of JL - D93] (Eterna round: R96, puzzle: Exclusion NG 3) | 78.7 | 33.1 | 29.9 |  |  | 
32 | GCUGCAAAUGUAGGAUAUCUGCACGUGUAGUGCAGAGAAGGACAUGAGGAUCACCCAUGUAGAUCAGCAGCAAUUAAUUUAAUU [ENG1/5-A3] (Eterna round: R96, puzzle: Exclusion NG 1) | 288 | 42.2 | 34.5 |  |  | 
33 | CGAUAAAAGACAGGAUAUGAGGAGAGAGAGAGAUCAGAAGGGUCACAUGAGGAUCACCCAUGUGAGUUCUCGAAAGGAAAGAGG [Prohibition 51 - Jieux - Exclusion NG 1] (Eterna round: R96, puzzle: Exclusion NG 1) | 21.4 | 23 | 15 |  |  | 
34 | AGUAGGUCUACCUUGGUGGAUCUGCAUUUAUGCAGGUGUACAUGAGGAUCACCCAUGUCCUCAUUUGCUCGUCUUAU [JL turnoff v2 99.27] (puzzle: Sensor v3, turn-off variant 2) |  |  |  | 400 | 501 | 349
